In one data set the target is T1, TRAP1-3.
T1 construct: designed fusion of TRAP1 and TRAP3 TPR modules, synthetic gene in pET-28b(+), E. coli C41, Ni-NTA; His-tag kept in assembly; mass 32,621 (kDa [sic])
Description: fluorescence anisotropy of NADH. The data set is classed as binding. As to conditions: PBS (150 mM NaCl, 50 mM phosphate) pH 7.4, 25 °C, 1 µM NADH titrated with 0-100 µM TRAP1-3; one-site fit. On the technique in general: In fluorescence polarisation assays a small probe gives low polarisation when free and higher when bound to something large.

Data set [1] deals with FDH1: formate dehydrogenase from Candida boidinii with peptide-1 (MEEVV) fused to its C-terminus (Candida boidinii). The data set can be described thus: SEC; each tagged enzyme alone; molecular weight estimated from the elution.
Substrate in data set [2]: NC(=O)c1ccc[n+]([C@@H]2O[C@H](COP(=O)(O)OP(=O)(O)OC[C@H]3O[C@@H](n4cnc5c(N)ncnc54)[C@H](O)[C@@H]3O)[C@@H](O)[C@H]2O)c1
The data set can be described thus: purified protein. The data set is classed as biochemical, [Candida] boidinii. As to conditions: saturating formate, 25 mM sodium phosphate pH 7.0, 30 °C, FDH1 bound alone to TRAP1-3, apparent.

Substrate in data set [3]: O=CO
The data set can be described thus: purified protein. To be noted: saturating NAD+, 25 mM sodium phosphate pH 7.0, 30 °C, FDH1 bound alone to TRAP1-3, apparent. The data set is classed as biochemical, [Candida] boidinii.

Substrate in data set [4]: NC(=O)C1=CN([C@@H]2O[C@H](COP(=O)(O)OP(=O)(O)OC[C@H]3O[C@@H](n4cnc5c(N)ncnc54)[C@H](O)[C@@H]3O)[C@@H](O)[C@H]2O)C=CC1
Description: purified protein. The data set is classed as biochemical, Geobacillus stearothermophilus. As to conditions: saturating pyruvate, 500 mM ammonium chloride, 25 mM potassium phosphate pH 8.0, 30 °C, AlaDH3 bound alone to TRAP1-3, apparent.

Substrate in data set [5]: CC(=O)C(=O)O
The data set can be described thus: purified protein. The data set is classed as biochemical, Geobacillus stearothermophilus. As to conditions: saturating NADH, 500 mM ammonium chloride, 25 mM potassium phosphate pH 8.0, 30 °C, AlaDH3 bound alone to TRAP1-3, apparent, substrate inhibition fit.

Data set [6] concerns the molecule itself. The data set can be described thus: SEC; each tagged enzyme alone; molecular weight estimated from the elution.

Consider `NC(=O)C1=CN([C@@H]2O[C@H](COP(=O)(O)OP(=O)(O)OC[C@H]3O[C@@H](n4cnc5c(N)ncnc54)[C@H](O)[C@@H]3O)[C@@H](O)[C@H]2O)C=CC1` [NADH], for which, at TRAP1-3, binding was put at a Kd of 34.9 µM.

Consider “FDH1: formate dehydrogenase from Candida boidinii with peptide-1 (MEEVV) fused to its C-terminus (enzyme)”, for which the stoichiometry N (in general, a count of units in the complex or per binding partner) in data set [1] was 2.

B1: FDH1@TRAP ([Candida] boidinii) (protein)
chain: MKIVLVLYDAGKHAADEEKLYGCTENKLGIANWLKDQGHELITTSDKEGGNSVLDQHIPDADIIITTPFHPAYITKERIDKAKKLKLVVVAGVGSDHIDLDYINQTGKKISVLEVTGSNVVSVAEHVLMTMLVLVRNFVPAHEQIINHDWEVAAIAKDAYDIEGKTIATIGAGRIGYRVLERLVPFNPKELLYYDYQALPKDAEEKVGARRVENIEELVAQADIVTINAPLHAGTKGLINKELLSKFKKGAWLVNTARGAICVAEDVAAALESGQLRGYGGDVWFPQPAPKDHPWRDMRNKYGAGNAMTPHYSGTTLDAQTRYAEGTKNILESFFTGKFDYRPQDIILLNGEYITKAYGKHDKK
notes: FDH with C-terminal peptide-1 tag MEEVV, pET-28b(+), E. coli C41, Ni-NTA, His-tag removed by TEV; mass 45,137 (kDa [sic]); dimer; 5DNA as structure used for illustration
Consider B1, for which, in the data set “purified protein [2]”, the Km (usually the substrate concentration at which the rate is half of its maximum) is 270 ± 100 µM; the Vmax (usually the top rate of the reaction or transport when substrate is in excess) was found to be 1.23 µmol/min/mg; the kcat (as a rule, the number of substrate molecules converted per active site and unit of time at saturation) amounted to 0.9 ± 0.3 s⁻¹; the kcat/Km (usually the second-order rate constant that governs catalysis at low substrate concentration) came out at 3500 M⁻¹ s⁻¹. Besides, in the data set “purified protein [3]”, the Km is 2420 ± 1070 µM, the Vmax is 0.95 µmol/min/mg, the kcat was found to be 0.7 ± 0.2 s⁻¹ and the kcat/Km turned out to be 290 M⁻¹ s⁻¹.

B2: AlaDH3@TRAP (Geobacillus stearothermophilus) (protein)
chain: MKIGIPKEIKNNENRVAITPAGVMTLVKAGHEVYVETEGGAGSGFSDSEYEKAGAADRCRTWRDAWTAEMVLKVKEPLAREFRYFRPGLILFTYLHLAAAERVTKAVVEQKVVGIAYETVQLANGSLPLLTPMSEVAGRMSVQVGAQFLEKPHGGKGILLGGVPGVRRGKVTIIGGGTAGTNAAKIGVGLGADVTILDINAERLRELDDLFGDHVTTLMSNSYHIAECVRESDLVVGAVLIPGAKAKLVTEEMVRSMTPGSVLVDIAIDQGGIFETTDRVTTHDDPTYVKHGVVHYAVANMPGAVPRTSTFALTNVTIPYALQIANKGYRAGCLDNPALLKGINTLDGHIVYEAVAAAHNMPYTDVHSLLHG
notes: AlaDH with C-terminal peptide-3 tag MRRVW, pET-28b(+), E. coli C41, Ni-NTA, His-tag removed by TEV; mass 44,323 (kDa [sic]); hexamer
For the molecule B2, in “purified protein [4]”, the Km was determined as 360 ± 70 µM, the Vmax worked out at 94.3 µmol/min/mg, the kcat is 69.9 ± 4.7 s⁻¹ and the kcat/Km was 190000 M⁻¹ s⁻¹. Moreover, in “purified protein [5]”, the Km was 390 ± 50 µM, the Vmax came out at 41.3 µmol/min/mg, the kcat came to 30.6 ± 1.9 s⁻¹ and the kcat/Km is 79000 M⁻¹ s⁻¹.

B3: AlaDH3: alanine dehydrogenase from Bacillus stearothermophilus with peptide-3 (MRRVW) fused to its C-terminus (enzyme)
chain: MKIGIPKEIKNNENRVAITPAGVMTLVKAGHDVYVETEAGAGSGFSDSEYEKAGAVIVPNAEDAWTAEMVLKVKEPLAEEFRYFRPGLILFTYLHLAAAEALTKALVEQKVVGIAYETVQLANGSLPLLTPMSEVAGRMSVQVGAQFLEKPHGGKGILLGGVPGVRRGKVTIIGGGTAGTNAAKIAVGLGSDVTILDINAERLRELDDLFGDHVTTLMSNSYHIAECVRESDLVVGAVLIPGAKAPKLVTEEMVRSMTPGSVLVDIAIDQGGIFETTDRVTTHDDPTYVKHGVVHYAVANMPGAVPRTSTFALTNVTIPYALQIANKGYRAACLDNPALLKGINTLDGHIVYEAVAAAHNMPYTDVHSLLHGMRRVW
Regarding B3, the “stoichiometry N” value in data set [6] is 6.

(Values after article PMC10160029, “Engineered repeat proteins as scaffolds to assemble multi-enzyme systems for efficient cell-free biosynthesis” (Nature Communications, 2023).)
